Assay [1] has as its target T1, FAM19A5 mutant M6 (human).
T1 construct: FAM19A5 with region 6 replaced by the consensus of FAM19A1-4; The entry already carries the changes
T1 chain: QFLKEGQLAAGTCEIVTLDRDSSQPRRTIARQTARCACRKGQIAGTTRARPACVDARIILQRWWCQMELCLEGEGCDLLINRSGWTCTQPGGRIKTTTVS
Kind of assay: ELISA on phage-displayed FAM19A5 mutants; y axis without label; no blank in the panel, lowest bars about 0.05. (An ELISA detects its analyte on a solid surface through an enzyme-linked reagent.)

Assay [2] addresses T2, FAM19A5-M5.
T2 construct: also called FAM19A5 mutant M5
T2 FAM19A5 mutant: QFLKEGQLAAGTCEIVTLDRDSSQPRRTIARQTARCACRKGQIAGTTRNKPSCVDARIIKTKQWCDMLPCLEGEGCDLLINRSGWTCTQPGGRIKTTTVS
Described as above.

The target in assay [3] is T3, FAM19A5 fragment 5 mutant peptide F5-5 (#5) (human).
T3 construct: The entry already carries the alanine substitution and Ser for Cys; also called mutant peptide #5
T3 peptide: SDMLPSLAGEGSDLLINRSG
Description: ELISA on the coated F5 mutant peptide. How it is done: (§1) Overlapping peptide fragments (F1-F6, see FIG. 9) of the human FAM19A5 protein were synthesized and conjugated to BSA. Binding of the different anti-FAM19A5 antibodies to the BSA-conjugated peptide fragments F1-F6 was determined by Western blot analysis or ELISA assay. For the Western blot analysis, BSA-conjugated FAM19A5 fragments F1-F6 were separated by SDS polyacrylamide gel electrophoresis and transferred to a nitrocellulose membrane by the standard procedure. The membrane was incubated with the anti-FAM19A5 antibody (e.g., 1-65, 2 μg/ml, 1-65-scFv-rabbit Fc-SSS), and the antigen-antibody complexes were detected with the appropriate secondary antibody conjugated with horse-radish peroxidase (anti-rabbit IgG (Fc specific)-HRP, 1:4000 dilution). For the ELISA assay, the following protocol was used. FAM19A5 fragment F1-F6 (diluted to 1 μg/mL in 50 mM carbonate buffer (Biosesang) or to 20 μg/mL for high concentration analysis) were used to coat the wells of 96-well immuno plates (Thermo Scientific) (100 μL/well) overnight at 4° C. and then subsequently washed twice in 1×PBS. The plates were then blocked with the blocking buffer (100 μL/well) for 1 hour at room temperature. During the 1-hour incubation, the relevant anti-FAM19A5 antibodies were diluted to 1 μg/mL (or 20 μg/mL for high concentration analysis) in the diluent buffer. Once the plates were washed (2× using 1×PBS), the diluted anti-FAM19A5 antibodies were added to the appropriate wells, and the plates were incubated at room temperature for 1 hour. The plates were subsequently washed for a total of five times using the washing buffer. Next, the ODP substrate (prepared by dissolving one ODP tablet (O-phenylenediamine Dihydrochloride, Thermo) into 9 mL of sterilized deionized water and 1 mL of 10× stable Peroxide Stable buffer (Theromo)) was added to each of the wells, and the color change reaction was allowed to occur for 10 minutes. This reaction was stopped by adding 100 μL of 2N H2SO4 (Daejung) to the wells. The absorption value of each of the wells was detected at 492 nm using a 96-well microplate reader (Molecular Device).
(§2) Next, to identify the specific amino acid residues within the epitope fragment F5 that the 1-65 and P2-C12 antibodies bind to, different amino acid residues of the F5 fragment were replaced with alanine as shown in Table 9 (below).

Assay [4] has as its target T4, FAM19A5 fragment 5 mutant peptide F5-4 (#4) (human).
T4 construct: The entry already carries the alanine substitution and Ser for Cys; also called mutant peptide #4
Kind of assay: ELISA on the coated F5 mutant peptide. How it is done: as §1, §2

Assay [5] concerns the target T5, FAM19A5 fragment 5 mutant peptide F5-6 (#6) (human).
T5 construct: The entry already carries the alanine substitution and Ser for Cys; also called mutant peptide #6
Kind of assay: ELISA on the coated F5 mutant peptide. How it is done: as §1, §2

The target in assay [6] is T6, FAM19A5 fragment 5 mutant peptide F5-2 (#2) (human).
T6 construct: The entry already carries the alanine substitution and Ser for Cys; also called mutant peptide #2
Description: ELISA on the coated F5 mutant peptide. How it is done: as §1, §2

The target in assay [7] is T7, FAM19A5 fragment 5 mutant peptide F5-3 (#3) (human).
T7 construct: The entry already carries the alanine substitution and Ser for Cys; also called mutant peptide #3
Description: ELISA on the coated F5 mutant peptide. How it is done: as §1, §2

In assay [8] the target is T8, FAM19A5 fragment 5 mutant peptide F5-8 (#8) (human).
T8 construct: The entry already carries the alanine substitution and Ser for Cys; also called mutant peptide #8
T8 peptide: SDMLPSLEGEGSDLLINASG
Description: ELISA on the coated F5 mutant peptide. How it is done:
as §1, §2

Assay [9] concerns the target T9, FAM19A5 fragment 5 mutant peptide F5-1 (#1) (human).
T9 construct: The entry already carries the alanine substitution and Ser for Cys; also called mutant peptide #1
T9 peptide: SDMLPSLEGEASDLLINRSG
Kind of assay: ELISA on the coated F5 mutant peptide. How it is done: as §1, §2

Assay [10] concerns the target T1, FAM19A5 mutant M6. Kind of assay: ELISA on phage-displayed FAM19A5 mutants; y axis without label.
Assay [11] addresses T2, FAM19A5-M5. Description: ELISA on phage-displayed FAM19A5 mutants; y axis without label; no blank in the panel.

T5 sequence (peptide, as listed by the source mutant): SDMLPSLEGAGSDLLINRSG
T7 sequence (peptide, as listed by the source mutant): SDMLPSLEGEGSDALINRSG
T6 sequence (peptide, as listed by the source mutant): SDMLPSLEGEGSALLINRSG
T4 sequence (peptide, as listed by the source mutant): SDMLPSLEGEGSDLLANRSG

B1: Anti-FAM19A5 (P2-F07) (antibody, V domains shown)
VH: QSLEESGGRLVTPGTPLTLTCTASGFSLSSYYMNWVRQAPGKGLEWIGIIYPSGTTYYAGWAKGRFTISKTSTTVDLKITSPTSEDTATYFCARTVSGYFDIWGPGTLVTVSL
VL: ELDLTQTPPSLSASVGGTVTINCLASEDIYSALAWYQQKPGKPPTLLISGTSNLESGVPPRFSGSGSGTDYTLTIGGVQAEDAATYFCQGYSSYPLTFGAGTNVEIK
notes: Only variable domains are tied to the name
Turning to B1, the binding result in assay [1] and in assay [2] was “binds” each time.

B2: Anti-FAM19A5 (P2-C12) (antibody, V domains shown)
VH: QSLEESGGRLVTPGTPLTLTCTVSGFSLSTYAVTWVRQAPGKGLEWIGYINWRGGTSYANWAKGRFTISKTSSTTVDLKMTSPTTEDTATYFCARDASSGAAFGSYGMDPWGPGTLVTVSS
VL: ELDMTQTPSSVSAAVGGTVTIKCQASQSISSYLSWYQQKPGQPPKLLIYEASKLASGVPSRFSGSGYGTEFTLTISDLECADAATYYCQQGYSSTNVWNAFGGGTNVEIK
notes: Only variable domains are tied to the name; also called anti-FAM19A5 antibody P2-C12
As for B2, the “O.D (492nm)” value in assay [3] was determined as 3.49; in [4] it was 3.86; in assay [5], 0.095; in [6] it was 3.65; in [7] it was 3.84; in assay [8], 0.1. In addition, the “O.D (492nm)” value in assay [9] worked out at 0.056. Moreover, the binding result is given as “no binding” in [5]; “no binding” in assay [8]; “no binding” in assay [9]; “no binding” in assay [10]; “binds” in [2].

B3: Anti-FAM19A5 (P2-A01) (antibody, V domains shown)
VH: QEQLVESGGRLVTPGTPLTLSCTASGFFLSGYYMSWVRQAPGKGLEWIGIIYPSGSTDYASWAKGRFTISKTSTTVDLKITTPTTEDTATYFCARVAGYVGYGYETFFDIWGPGTLVTVSL
VL: ELVMTQTPPSLSASVGETVRIRCLASEDIYSGISWYQQKPGKPPTLLIYGASNLESGVPPRFSGSGSGSDYTLTIGGVQAEDAATYYCLGGVTYSSTGTHLTFGAGTNVEIK
notes: as for B1
Take B3: the binding result in assay [1] and in [2] was “binds” in each case.

B4: Anti-FAM19A5 (P1-F02) (antibody, V domains shown)
VH: QSLEESGGRLVTPGTPLTLTCTASGFSLSNYYMGWVRQAPGEGLEWIGIIYASGSTYYASWAKGRFTISKTSTTVDLKMTSLTTEDTATYFCARIDIGVGDYGWAYDRLDLWGQGTLVTVSS
VL: ELDMTQTPPSLSASVGETVRIRCLASEDIYSGISWYQQKPGKPPTLLIYGASNLESGVPPRFSGSGSGTDYTLTIGGVQAEDAATYYCLGGYSYSSITFGAGTNVEIK
notes: as for B1
As to B4, the binding result in [1] and in [2] was “binds” each time.

B5: Anti-FAM19A5 (P1-A08) (antibody, V domains shown)
VH: QSLEESGGRLVTPGTPLTLTCTASGFSLSTYYMSWVRQAPGKGLEWIGIVYPSGTTYYANWAKGRFTISTASTTVDLMITSPTTEDTATYFCARGDSFGYGLWGPGTLVTVSS
VL: ELVLTQSPSVQVNLGQTVSLTCTADTLSRSYASWYQQKPGQAPVLLIYRDTSRPSGVPDRFSGSSSGNTATLTISGAQAGDEADYYCATSDGSGSNYQYVFGGGTQLTVT
notes: as for B1
Take B5: the binding result in assay [1] and in [2] was “binds” throughout.

B6: Anti-FAM19A5 (P2-F11) (antibody, V domains shown)
VH: QEQLVESGGRLVTPGTTLTLTCTVSGFSLSSYGVSWVRQAPGKGLEWIGYIANNYNPHYASWAKGRFTISKTSSTTVDLKMTSLTTEDTATYFCARDNYGMDPWGPGTLVTVSS
VL: ELDLTQTPSSVSAAVGGTVTINCQASQSVYNNKNLAWYQQKPGQPPKLLIYAASTLASGVSSRFKGSGSGTQFTLTISDVQCDDAATYYCQGEFSCSSADCNAFGGGTELEIL
notes: as for B1
Regarding B6, the binding result in assay [2] was “binds”.

B7: Anti-FAM19A5 (15A9) (antibody, V domains shown)
VH: QVQLQESGPGLVKPSETLSLTCTVSGGSISSYYWSWIRQPPGKGLEWIGYIYPSGSTNYNPSLKSRVTISVDTSKNQFSLNLKSVTAVDTAVYYCARVNPFGYYYAMDVWGQGTTVTVSS
VL: DIQMTQSPSSLSASVGDRITISCRASQSISTSLNWYQQTPGKAPRLLIYGASTLQSGVPSRFSGGGSGTDFSLTITSLQPEDFATYYCQESASIPRTFGQGTKLDIK
notes: as for B1
B7: the binding result in [11] was “binds”.

(Values after patent publication US20250236663A1 (NEURACLE SCIENCE, published 2025).)
